Literature values as cited in PMC11105488.

How the values were obtained:
[1] = target: FGFR4 (Homo sapiens) (UniProt P22455)
[2] = target: FGFR1c (Homo sapiens) (UniProt P11362)
[3] = target: FGFR2c (Homo sapiens) (UniProt P21802)
UniProt P21802, sequence (P21802 22-377): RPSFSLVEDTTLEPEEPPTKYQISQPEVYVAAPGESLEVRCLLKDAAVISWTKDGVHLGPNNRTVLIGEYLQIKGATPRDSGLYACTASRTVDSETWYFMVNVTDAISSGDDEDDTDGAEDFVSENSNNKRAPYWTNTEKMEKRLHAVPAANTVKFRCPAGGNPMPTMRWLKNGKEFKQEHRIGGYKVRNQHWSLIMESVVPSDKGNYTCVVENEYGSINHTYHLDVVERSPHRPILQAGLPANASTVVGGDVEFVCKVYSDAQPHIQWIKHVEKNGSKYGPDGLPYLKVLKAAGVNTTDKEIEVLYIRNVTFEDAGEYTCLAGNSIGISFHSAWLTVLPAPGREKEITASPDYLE

UniProt P22455, sequence (P22455 22-369): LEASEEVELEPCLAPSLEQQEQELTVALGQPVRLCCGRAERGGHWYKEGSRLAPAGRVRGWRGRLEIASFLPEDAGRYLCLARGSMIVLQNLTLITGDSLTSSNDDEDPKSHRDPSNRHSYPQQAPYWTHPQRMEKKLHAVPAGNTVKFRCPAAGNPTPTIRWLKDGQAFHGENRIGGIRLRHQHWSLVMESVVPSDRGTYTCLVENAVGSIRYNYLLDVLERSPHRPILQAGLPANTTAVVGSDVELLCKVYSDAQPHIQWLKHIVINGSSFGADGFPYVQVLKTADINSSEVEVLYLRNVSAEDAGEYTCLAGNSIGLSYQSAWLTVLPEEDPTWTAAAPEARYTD
UniProt P11362, sequence (P11362 22-376): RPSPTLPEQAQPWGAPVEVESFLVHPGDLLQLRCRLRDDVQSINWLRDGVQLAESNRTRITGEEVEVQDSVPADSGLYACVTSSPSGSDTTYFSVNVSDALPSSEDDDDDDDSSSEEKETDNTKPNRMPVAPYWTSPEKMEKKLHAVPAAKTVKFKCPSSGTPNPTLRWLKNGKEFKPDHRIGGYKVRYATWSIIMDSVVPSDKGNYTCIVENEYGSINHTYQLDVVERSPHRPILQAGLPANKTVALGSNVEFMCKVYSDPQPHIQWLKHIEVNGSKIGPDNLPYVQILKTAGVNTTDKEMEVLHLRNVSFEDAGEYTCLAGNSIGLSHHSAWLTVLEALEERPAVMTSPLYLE

- Kd [1]: 200 nM
- Kd [2]: 700 nM
- Kd [3]: 200 nM
Substance: FGF23 (from UniProt Q9GZV9)
